Results taken from patent US20240316157A1, “PHARMACEUTICAL COMPOSITION OF PCSK9 INHIBITOR AND GLP-1 RECEPTOR AGONIST” (Gan & Lee Pharmaceuticals Co., Ltd., priority 2021, published 2024).

Columns and labels:
[1] = test system: wild-type hamsters; experiment: Effect of the combination of Alirocumab and semaglutide on blood glucose in hamsters; type: in vivo, hamster; conditions: for Blood glucose (relative concentration): 7th day after dosing relative to baseline, s.c. once every two days, high-fat high-sugar feed, x±s; for Blood glucose decline rate E value: 7th day, versus control group, recorded as 0 if not significantly different from control
Description: The experimental animals in this Example were wild-type hamsters, and the hamsters were grouped and administered according to the following standard: • 1) Control group: injection of excipient samples, subcutaneous injection (administration of […]), once every two days; • 2) Alirocumab group: injection of Alirocumab sample (Alirocumab 10 mg/kg), subcutaneous injection, once every two days; • 3) Semaglutide group: injection of semaglutide sample (semaglutide 0.12 mg/kg), subcutaneous injection, once every two days; • 4) Alirocumab+semaglutide group: injection of Alirocumab (Alirocumab 10 mg/kg) and semaglutide (semaglutide 0.12 mg/kg) by subcutaneous injection, the frequency of administration was once every two days.
On the first day of the experiment, each group of wild-type hamsters was given high-fat and high-sugar feed (containing 10% lard, 10% cholesterol, and 60% fructose) and injected with drugs according to the above dosing regimen for each group, and blood was collected from the inner canthus vein of the hamster on the day before administrating and 7th day after dosing, plasma was anticoagulated with sodium heparin, and plasma was obtained by centrifugation of the whole blood at 4° C. for 10 min at 4000 rpm, and the blood glucose level was detected by glucose assay kit (Biosino Bio-Technology and Science Incorporation).
The obtained blood glucose data were normalized according to the following method: taking the blood glucose of each group before the administration of the drug as the baseline, the relative concentration of the corresponding time point obtained by comparing the blood glucose at the monitoring point after the administration of the drug to the baseline glucose, the relative concentration of blood glucose was expressed as x±s, and the decline rate of the blood glucose of each administration group was calculated by using the analysis of variance using the GraphPad Prism software, in which x means the average value of data, and s denotes the standard deviation.
Decline rate of blood glucose: E=[(relative blood glucose of […])/relative blood glucose of control group]×100%
Note: If there is no significant difference between the relative blood glucose value of the administered group and the relative blood glucose of the control group, the value of E is recorded as 0.
Calculation method of synergistic effect: the determination was made by using Zhengjun Jin's Q value, in which the Q value was obtained by the following formula: Q=Ea+b/(Ea+Eb−Ea×Eb); wherein Ea+b indicated the decline rate of detection indexes of the combination and mixed administration of the two drugs, and Ea, Eb indicated the decline rate of detection indexes of the two drugs used alone. If Q is between 0.85 and 1.15, it means that the two drugs have an additive effect; Q>1.15, the two drugs have a synergistic effect; Q<0.85, the two drugs have an antagonistic effect.

[2] = test system: transgenic mice overexpressing human PCSK9; experiment: Effect of Evolocumab in combination with Compound 5 on blood lipid (LDL-C) in hyperlipidemic mice; type: in vivo, mouse; conditions: conclusion in words from Table 3
Description: In this example, experimental animals were transgenic mice overexpressing human PCSK9 (4 weeks old). After being fed a high-fat diet for 37 days, their fasting lipid levels were measured.
On the 5th day after dosing, the lipid levels of the mice were measured. The lipid measurement method was as follows: Blood was collected from the mice via the inner canthus vein, plasma was obtained by centrifuging whole blood at 4° C. and 4000 rpm for 10 minutes with sodium heparin as an anticoagulant. LDL-C levels were measured using an LDL-C assay kit (Nanjing Jiancheng Bioengineering Institute).
The blood lipid data obtained were normalized using the following method: The blood lipid of each group before administration was taken as baseline, and the relative concentration of lipid at the corresponding time point obtained by comparing the blood lipid at the monitoring points after administration with that before administration. The relative concentration of blood lipid is represented as ‘x±s’, with ‘x’ representing the mean value of the data and ‘s’ representing the standard deviation. Variance analysis was conducted using GraphPad Prism software.

[3] = test system: wild-type hamsters; experiment: Effect of the combination of Evolocumab and Compound 5 on blood glucose in hamsters; type: in vivo, hamster
Description: The experimental animals in this Example were wild-type hamsters, and the hamsters were grouped and administered according to the following standard: • 1) Control group: subcutaneous injection of excipient samples, subcutaneous injection (administration of 2 μL/kg), once every two days; • 2) Evolocumab group: injection of Evolocumab samples (Evolocumab 30 mg/kg) by subcutaneous injection, once every two days; • 3) Compound 5 group: injection of compound 5 sample (compound 5: 0.12 mg/kg), using subcutaneous injection, once every two days; • 4) Evolocumab+Compound 5 group: injection of a pharmaceutical combinations containing Evolocumab and Compound 5 (Evolocumab 30 mg/kg, Compound 5: 0.12 mg/kg) by subcutaneous injection once every two days.
On the first day of the experiment, each group of wild-type hamsters was given high-fat and high-sugar feed (containing 10% lard, 10% cholesterol, and 60% fructose) and injected with samples according to the dosing regimen described above for each group, and blood was collected from the inner canthus vein of the hamsters on the day before administration and 7th day after administration, and plasma was anticoagulated with heparin sodium, and plasma was obtained by centrifugation for 10 min at 4° C. at 4,000 rpm, and the blood glucose level was measured by glucose assay kit (Biosino Bio-Technology and Science Incorporation.) […]

[4] = test system: humanized mice overexpressing PCSK9 (B6-hPCSK9); experiment: Animal efficacy of Evolocumab in combination with Compound 5: body weight, fasting blood glucose, LDL-C; type: in vivo, mouse
Description: In this example, humanized mice overexpressing PCSK9 (B6-hPCSK9) (males, 6 weeks old) were used, totaling 30 mice. These humanized mice were divided into six groups: K0-K5, with 5 mice per group. K0 served as the NC control group (fed a high-fat feed throughout the experiment), while K1-K5 were experimental groups. After a 1-week adaptation period with growth and breeding feed (Keao Xieli Feed), they were fed a high-fat diet for one month (Xietong Pharmaceutical Bio-engineering), and dosing was initiated after the high-fat diet feeding.
The dosing for each experimental group was done via subcutaneous injection once in total, with the dose administrated calculated based on the dose of Evolocumab. […] If the dose was doubled (2×), the dose was doubled accordingly.
Throughout the experiment, various indicators were monitored with the following frequencies: for weight monitoring, the weight was measured and recorded before dosing and then every other day after blood collection, this was performed a total of 3 times. […] Blood glucose levels were measured using a glucose assay kit (provided by Biosino Bio-Technology and Science Inc). […] LDL-C in the serum samples was measured using an LDL-C test kit (Nanjing Jiacheng Bioengineering Institute).

[5] = CEX-HPLC acid-to-base peak ratio of Evolocumab (storage stability); type: physicochemical; conditions: 4° C., reference of one-month study of Suspension Formulation-2
[6] = Reduced CE-SDS light and heavy chain ratio of Evolocumab (storage stability); type: physicochemical; conditions: 4° C., reference of one-month study of Suspension Formulation-2
Excerpt: The Acidic and Alkaline Peak ratio of Evolocumab monoclonal antibody in Suspension Formulation-2 falls within the quality standard range of originator product. (main peak≥51%, alkaline peak≤16%). • (4) The results of reduced CE-SDS testing for the light-heavy chain ratio of Evolocumab monoclonal antibody in Suspension Formulation-2 are presented in Table 22: […]

## Alirocumab
[1]
  Blood glucose (relative concentration): 0.71 ± 0.049
  Blood glucose decline rate E value: 0%
[1]; conclusion in words from Table 1
  hypoglycemic function: did not show a hypoglycemic function

## Semaglutide
[1]
  Blood glucose (relative concentration): 0.61 ± 0.062
  Blood glucose decline rate E value: 14.1%

B1: Evolocumab (antibody, chains of the INN, looked up, V domains shown)
VH: EVQLVQSGAEVKKPGASVKVSCKASGYTLTSYGISWVRQAPGQGLEWMGWVSFYNGNTNYAQKLQGRGTMTTDPSTSTAYMELRSLRSDDTAVYYCARGYGMDVWGQGTTVTVSS
VL: ESALTQPASVSGSPGQSITISCTGTSSDVGGYNSVSWYQQHPGKAPKLMIYEVSNRPSGVSNRFSGSKSGNTASLTISGLQAEDEADYYCNSYTSTSMVFGGGTKLTVL
notes: PCSK9 antibody; source is Repatha®, commercially available from Amgen
[2]
  lipid-lowering effect: lipid-lowering effects
[3]; 7th day, versus control group, recorded as 0 if not significantly different from control
  Blood glucose decline rate E value: 0%
[3]; conclusion in words from Table 2
  hypoglycemic function: did not show a hypoglycemic function
[4]; single s.c. 1× dose (K2 530 ug/kg Compound 5; K3, K4 12.3 mg/kg Evolocumab), FIGS. 1-2
  body weight: did not experience weight loss
[4]; single s.c. 1× dose (K3, K4 12.3 mg/kg Evolocumab), FIG. 5
  LDL-C: ability to lower LDL-C levels was consistent

B2: Laboratory-Purified Evolocumab: Commercially available Evolocumab (Repatha®) purified in the laboratory, 140 mg/ml (antibody, chains of the INN, looked up, V domains shown)
VH: EVQLVQSGAEVKKPGASVKVSCKASGYTLTSYGISWVRQAPGQGLEWMGWVSFYNGNTNYAQKLQGRGTMTTDPSTSTAYMELRSLRSDDTAVYYCARGYGMDVWGQGTTVTVSS
VL: ESALTQPASVSGSPGQSITISCTGTSSDVGGYNSVSWYQQHPGKAPKLMIYEVSNRPSGVSNRFSGSKSGNTASLTISGLQAEDEADYYCNSYTSTSMVFGGGTKLTVL
[5]
  Alkaline Peak (%): 10.569%
[6]
  Pre-LC + LC + HC(%): 98.79%
